Reference: patent US20250171562A1

Target: mixture of three Der p 2 specific recombinant human IgE clones H10, H12, P4E (human) (UniProt P01854)
Test: RBL-SX38 IgE displacement, FACS

mixture of three Der p 2 specific recombinant human IgE clones H10, H12, P4E (human), sequence (P01854 other isoform, or with tags, fused parts or gaps): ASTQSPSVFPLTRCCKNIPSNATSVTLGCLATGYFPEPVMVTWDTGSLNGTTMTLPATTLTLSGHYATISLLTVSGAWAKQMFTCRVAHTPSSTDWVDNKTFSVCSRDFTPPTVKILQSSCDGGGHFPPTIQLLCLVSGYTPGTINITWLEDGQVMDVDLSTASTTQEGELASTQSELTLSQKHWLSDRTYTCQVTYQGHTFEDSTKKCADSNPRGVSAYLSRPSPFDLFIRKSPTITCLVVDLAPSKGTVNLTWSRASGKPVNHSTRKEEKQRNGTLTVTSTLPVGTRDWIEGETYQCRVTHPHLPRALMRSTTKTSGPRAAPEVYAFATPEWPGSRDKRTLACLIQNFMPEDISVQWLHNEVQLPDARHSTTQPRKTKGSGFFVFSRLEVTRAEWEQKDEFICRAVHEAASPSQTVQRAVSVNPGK

EC50	Max effect/effect 1 µM	Binder
–	7%	sdAb B3 (VHH) VHH: DVQLQESGGGLVQAGGSLRLSCAASGFIFRLAGMSWVRQAPGKGFEWVSGITMDGSTTNYADSVKGRFTISRDNSKNRLYLQMNSLKPEDTAVYYCARGAKGGYNDPRGQGTQVTVS
–	22%	sdAb D2 (VHH) VHH: DVQLQESGGGLVEAGGSLRLSCVASGRTFSGWSMGWFRQAPGKEREFVAAISWVGSWIGGTVYSNSVKGRFTISRDNARTTVYLQMNSLKPEDTAVYFCAAANSETPRIFASEYDYWGQGTQVTVS
–	12%	sdAb D1 (VHH) VHH: DVQLQESGGGLVQAGGSLRLSCAASGLTFSRCDMGWFRQAPGKEREFVARISANGASTHYADFVKGRFTISRDNAKNTVYLQMNYLKPEDTAVYICAAARVPVTWQLYDYWGQGTQVTVS
–	0%	sdAb E1 (VHH) VHH: DVQLQESGGGLVQAGGSLRLSCLASGRTFTTTSGYNMGWFRQAPGKEREFVAGIKWVSGSNRAYAESVKGRFTISRDNAKNTVYLQMNSLKPEDTAVYYCAAATGQSYVPIREYEYVYWGQGTQVTVS
–	17%	sdAb F4 (VHH) VHH: DVQLQESGGGLVQAGGSLRLSCAVSGLSFSSMGWFRQPPGKEREFVAAISLYSGSTYYADSVKGRFTISSDNAKSTVYLQMNSLKPEDAAVYFCAADRQRTWSTFYASRQATYNYWGQGTQVTVTS
–	5.6%	sdAb F3 (VHH) VHH: DVQLQESGGGLVQAGGSLKLSCAASRGSLSRWDVAWFRQAPGKERSFVTRISWSGTTSYYADAVKGRFAISRDNAKNTVYLQMNSLKPEDTAVYYCAVALYGNRGYYDVNAHSYWGQGTQVTVS
–	26%	sdAb F6 (VHH) VHH: DVQLQESGGGLVQAGGSLRLSCAASGLTFGSYDMGWYRQAPGKQRELVGRIRNDGITYYADSVKGRFTMSRDNAKNTVYLQMNSLKPEDTAVYYCAADGTGLGHYDYWGQGTQVTVS
–	54%	sdAb B1 (VHH) VHH: QVQLQESGGGLVQTGGSLRLSCAVHGRTFSNTGMGWFRQAPGNERQFVAIISPSGTSTYYADSVKGRFTISRDPAKNTVYLQMNSLKMDDTAVYYCAASYGSNWSTLRHQRRNEYDAWGQGTQVAVS
–	23%	sdAb B2 (VHH) VHH: QVQLVESGGGLVQAGGSLRLSCAVFGSTFSNNVADWYRQAPGKQRELVARISASGATREYGDSVKGRFTISRDDAKNTMYLQMNNLKPEDTAVYRCHKIEWEDLSRKDYWGQGTQVTVS

Second part, the binder before the results:

Binder	EC50	Max effect/effect 1 µM
D2A1(G4S)4 (bispecific antibody) DVQLQESGGGLVEAGGSLRLSCVASGRTFSGWSMGWFRQAPGKEREFVAAISWVGSWIGGTVYSNSVKGRFTISRDNARTTVYLQMNSLKPEDTAVYFCAAANSETPRIFASEYDYWGQGTQVTVSGGGGSGGGGSGGGGSGGGGSEVQLLESGGGLVQPGGSLRLSCAASGFTFGNYDMAWVRQAPGKRPEWVSSIDTGGDITHYADSVKGRFTISRDNAKNTLYLQMNSLRPEDTAVYWCATDEEYALGPNEFDYYGQGTLVTVS	78.7 nM	83%
A1B2(G4S)4 (bispecific antibody) EVQLLESGGGLVQPGGSLRLSCAASGFTFGNYDMAWVRQAPGKRPEWVSSIDTGGDITHYADSVKGRFTISRDNAKNTLYLQMNSLRPEDTAVYWCATDEEYALGPNEFDYYGQGTLVTVSGGGGSGGGGSGGGGSGGGGSQVQLVESGGGLVQAGGSLRLSCAVFGSTFSNNVADWYRQAPGKQRELVARISASGATREYGDSVKGRFTISRDDAKNTMYLQMNNLKPEDTAVYRCHKIEWEDLSRKDYWGQGTQVTVS	0.8 nM	100%
A1B3(G4S)4 (bispecific antibody) EVQLLESGGGLVQPGGSLRLSCAASGFTFGNYDMAWVRQAPGKRPEWVSSIDTGGDITHYADSVKGRFTISRDNAKNTLYLQMNSLRPEDTAVYWCATDEEYALGPNEFDYYGQGTLVTVSGGGGSGGGGSGGGGSGGGGSDVQLQESGGGLVQAGGSLRLSCAASGFIFRLAGMSWVRQAPGKGFEWVSGITMDGSTTNYADSVKGRFTISRDNSKNRLYLQMNSLKPEDTAVYYCARGAKGGYNDPRGQGTQVTVS	0.4 nM	99%
A1A1(G4S)4 (VHH) EVQLLESGGGLVQPGGSLRLSCAASGFTFGNYDMAWVRQAPGKRPEWVSSIDTGGDITHYADSVKGRFTISRDNAKNTLYLQMNSLRPEDTAVYWCATDEEYALGPNEFDYYGQGTLVTVSGGGGSGGGGSGGGGSGGGGSEVQLLESGGGLVQPGGSLRLSCAASGFTFGNYDMAWVRQAPGKRPEWVSSIDTGGDITHYADSVKGRFTISRDNAKNTLYLQMNSLRPEDTAVYWCATDEEYALGPNEFDYYGQGTLVTVS	402 nM	45%
A1D2(G4S)4 (bispecific antibody) EVQLLESGGGLVQPGGSLRLSCAASGFTFGNYDMAWVRQAPGKRPEWVSSIDTGGDITHYADSVKGRFTISRDNAKNTLYLQMNSLRPEDTAVYWCATDEEYALGPNEFDYYGQGTLVTVSGGGGSGGGGSGGGGSGGGGSDVQLQESGGGLVEAGGSLRLSCVASGRTFSGWSMGWFRQAPGKEREFVAAISWVGSWIGGTVYSNSVKGRFTISRDNARTTVYLQMNSLKPEDTAVYFCAAANSETPRIFASEYDYWGQGTQVTVS	4.3 nM	98%
B2A1(G4S)4 (bispecific antibody) QVQLVESGGGLVQAGGSLRLSCAVFGSTFSNNVADWYRQAPGKQRELVARISASGATREYGDSVKGRFTISRDDAKNTMYLQMNNLKPEDTAVYRCHKIEWEDLSRKDYWGQGTQVTVSGGGGSGGGGSGGGGSGGGGSEVQLLESGGGLVQPGGSLRLSCAASGFTFGNYDMAWVRQAPGKRPEWVSSIDTGGDITHYADSVKGRFTISRDNAKNTLYLQMNSLRPEDTAVYWCATDEEYALGPNEFDYYGQGTLVTVS	5.8 nM	92%
A1B1(G4S)4 (bispecific antibody) EVQLLESGGGLVQPGGSLRLSCAASGFTFGNYDMAWVRQAPGKRPEWVSSIDTGGDITHYADSVKGRFTISRDNAKNTLYLQMNSLRPEDTAVYWCATDEEYALGPNEFDYYGQGTLVTVSGGGGSGGGGSGGGGSGGGGSQVQLQESGGGLVQTGGSLRLSCAVHGRTFSNTGMGWFRQAPGNERQFVAIISPSGTSTYYADSVKGRFTISRDPAKNTVYLQMNSLKMDDTAVYYCAASYGSNWSTLRHQRRNEYDAWGQGTQVAVS	1.4 nM	100%
NIgG4B1A1(G4S)2 (Fc fusion) chain 1: QVQLQESGGGLVQTGGSLRLSCAVHGRTFSNTGMGWFRQAPGNERQFVAIISPSGTSTYYADSVKGRFTISRDPAKNTVYLQMNSLKMDDTAVYYCAASYGSNWSTLRHQRRNEYDAWGQGTQVAVSGGGGSGGGGSGPPCPPCPAPEFLGGPSVFLFPPKPKDTLMISRTPEVTCVVVDVSQEDPEVQFNWYVDGVEVHNAKTKPREEQFNSTYRVVSVLTVLHQDWLNGKEYKCKVSNKGLPSSIEKTISKAKGQPREPQVYTLPPCQEEMTKNQVSLWCLVKGFYPSDIAVEWESNGQPENNYKTTPPVLDSDGSFFLYSRLTVDKSRWQEGNVFSCSVMHEALHNHYTQKSLSLSLGK chain 2: EVQLLESGGGLVQPGGSLRLSCAASGFTFGNYDMAWVRQAPGKRPEWVSSIDTGGDITHYADSVKGRFTISRDNAKNTLYLQMNSLRPEDTAVYWCATDEEYALGPNEFDYYGQGTLVTVSSGGGGSGGGGSGPPCPPCPAPEFLGGPSVFLFPPKPKDTLMISRTPEVTCVVVDVSQEDPEVQFNWYVDGVEVHNAKTKPREEQFNSTYRVVSVLTVLHQDWLNGKEYKCKVSNKGLPSSIEKTISKAKGQPREPQVCTLPPSQEEMTKNQVSLSCAVKGFYPSDIAVEWESNGQPENNYKTTPPVLDSDGSFFLVSRLTVDKSRWQEGNVFSCSVMHEALHNHYTQKSLSLSLGK	3 nM	99%
B1A1(G4S)4 (bispecific antibody) QVQLQESGGGLVQTGGSLRLSCAVHGRTFSNTGMGWFRQAPGNERQFVAIISPSGTSTYYADSVKGRFTISRDPAKNTVYLQMNSLKMDDTAVYYCAASYGSNWSTLRHQRRNEYDAWGQGTQVAVSGGGGSGGGGSGGGGSGGGGSEVQLLESGGGLVQPGGSLRLSCAASGFTFGNYDMAWVRQAPGKRPEWVSSIDTGGDITHYADSVKGRFTISRDNAKNTLYLQMNSLRPEDTAVYWCATDEEYALGPNEFDYYGQGTLVTVS	1.4 nM	100%
B3A1(G4S)4 (bispecific antibody) DVQLQESGGGLVQAGGSLRLSCAASGFIFRLAGMSWVRQAPGKGFEWVSGITMDGSTTNYADSVKGRFTISRDNSKNRLYLQMNSLKPEDTAVYYCARGAKGGYNDPRGQGTQVTVSGGGGSGGGGSGGGGSGGGGSEVQLLESGGGLVQPGGSLRLSCAASGFTFGNYDMAWVRQAPGKRPEWVSSIDTGGDITHYADSVKGRFTISRDNAKNTLYLQMNSLRPEDTAVYWCATDEEYALGPNEFDYYGQGTLVTVS	2 nM	100%
NIgG4B1A1(RS) (Fc fusion) chain 1: QVQLQESGGGLVQTGGSLRLSCAVHGRTFSNTGMGWFRQAPGNERQFVAIISPSGTSTYYADSVKGRFTISRDPAKNTVYLQMNSLKMDDTAVYYCAASYGSNWSTLRHQRRNEYDAWGQGTQVAVSRSGPPCPPCPAPEFLGGPSVFLFPPKPKDTLMISRTPEVTCVVVDVSQEDPEVQFNWYVDGVEVHNAKTKPREEQFNSTYRVVSVLTVLHQDWLNGKEYKCKVSNKGLPSSIEKTISKAKGQPREPQVYTLPPCQEEMTKNQVSLWCLVKGFYPSDIAVEWESNGQPENNYKTTPPVLDSDGSFFLYSRLTVDKSRWQEGNVFSCSVMHEALHNHYTQKSLSLSLGK chain 2: EVQLLESGGGLVQPGGSLRLSCAASGFTFGNYDMAWVRQAPGKRPEWVSSIDTGGDITHYADSVKGRFTISRDNAKNTLYLQMNSLRPEDTAVYWCATDEEYALGPNEFDYYGQGTLVTVSSRSGPPCPPCPAPEFLGGPSVFLFPPKPKDTLMISRTPEVTCVVVDVSQEDPEVQFNWYVDGVEVHNAKTKPREEQFNSTYRVVSVLTVLHQDWLNGKEYKCKVSNKGLPSSIEKTISKAKGQPREPQVCTLPPSQEEMTKNQVSLSCAVKGFYPSDIAVEWESNGQPENNYKTTPPVLDSDGSFFLVSRLTVDKSRWQEGNVFSCSVMHEALHNHYTQKSLSLSLGK	3 nM	99%
